The test has as its target recombinant mouse α-catenin with a COOH-terminal histidine tag (mouse) (UniProt P26231). Kind of test: co-sedimentation.

Usually stoichiometry N stands for a count of units in the complex or per binding partner.

Sequence of UniProt P26231 (P26231 whole entry): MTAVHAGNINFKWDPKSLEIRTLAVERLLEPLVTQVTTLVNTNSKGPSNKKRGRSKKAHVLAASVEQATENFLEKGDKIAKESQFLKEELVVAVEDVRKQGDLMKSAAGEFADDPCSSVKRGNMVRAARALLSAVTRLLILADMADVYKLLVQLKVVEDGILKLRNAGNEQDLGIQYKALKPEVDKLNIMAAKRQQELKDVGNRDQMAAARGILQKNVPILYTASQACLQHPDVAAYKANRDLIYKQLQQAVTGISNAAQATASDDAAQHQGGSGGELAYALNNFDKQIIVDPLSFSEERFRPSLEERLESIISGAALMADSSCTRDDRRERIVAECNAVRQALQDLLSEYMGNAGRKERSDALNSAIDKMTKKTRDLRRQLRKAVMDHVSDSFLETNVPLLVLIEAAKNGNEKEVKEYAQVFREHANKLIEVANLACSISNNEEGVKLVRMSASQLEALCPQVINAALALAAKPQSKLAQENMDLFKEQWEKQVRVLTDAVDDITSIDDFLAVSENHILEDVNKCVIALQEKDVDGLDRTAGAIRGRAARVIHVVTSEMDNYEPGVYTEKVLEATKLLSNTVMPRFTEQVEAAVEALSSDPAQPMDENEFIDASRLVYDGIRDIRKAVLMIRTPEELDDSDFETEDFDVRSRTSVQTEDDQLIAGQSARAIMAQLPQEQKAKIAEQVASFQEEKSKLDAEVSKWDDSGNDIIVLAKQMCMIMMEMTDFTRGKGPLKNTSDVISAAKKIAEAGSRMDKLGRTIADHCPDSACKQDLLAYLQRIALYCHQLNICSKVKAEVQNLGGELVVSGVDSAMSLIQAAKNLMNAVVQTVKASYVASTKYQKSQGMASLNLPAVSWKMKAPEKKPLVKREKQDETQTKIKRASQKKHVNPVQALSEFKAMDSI

Take “vinculin 90-kD head fragment (V8 protease fragment of chicken gizzard vinculin) (domain or fragment)”: the stoichiometry N came to 1.
